Test results published in article doi:10.1101/071829.
Where two headings read alike, the source gives them in different places.

Tests used:
Test in all cases: SEC
[1] = biological target: C. difficile replicative helicase CD3657, purified non-tagged (Clostridium difficile 630)
[2] = biological target: C. difficile putative helicase loader ATPase CD3654, purified non-tagged (Clostridium difficile 630)
[3] = biological target: C. difficile replicative helicase CD3657, purified non-tagged (Clostridium difficile 630); remark: listed apart in the source
[4] = biological target: C. difficile replicative helicase CD3657, purified non-tagged (Clostridium difficile 630); remark: listed apart in the source

Substance: C. difficile replicative helicase CD3657, purified non-tagged (enzyme)
- stoichiometry N [1]: 6
- stoichiometry N (CD3657 per CD3654 (6:6)) [2]: 1
- stoichiometry N [3]: 6
- stoichiometry N [4]: 6
